Experimental findings from PMC9280689, “Resistance to Powdery Mildew in Qingke Involves the Accumulation of Aromatic Phenolamides Through Jasmonate-Mediated Activation of Defense-Related Genes” (Frontiers in Plant Science, 2022) are described below.

Holding throughout (test): purified protein
Substrate in data set [1]: CC(C)(COP(=O)(O)OP(=O)(O)OC[C@H]1O[C@@H](n2cnc3c(N)ncnc32)[C@H](O)[C@@H]1OP(=O)(O)O)[C@@H](O)C(=O)NCCC(=O)NCCSC(=O)/C=C/c1ccc(O)c(O)c1
As to conditions: acyl donor, amine acceptor 100 μM (which amine not told), 10 mM MgCl2, Tris-HCl pH 7.4, 30 °C.

Substrate in data set [2]: CC(C)(COP(=O)(O)OP(=O)(O)OC[C@H]1O[C@@H](n2cnc3c(N)ncnc32)[C@H](O)[C@@H]1OP(=O)(O)O)[C@@H](O)C(=O)NCCC(=O)NCCSC(=O)/C=C/c1ccc(O)cc1
The note with it: acyl donor, amine acceptor 100 μM (which amine not told), 10 mM MgCl2, Tris-HCl pH 7.4, 30 °C.

Substrate in data set [3]: COc1cc(/C=C/C(=O)SCCNC(=O)CCNC(=O)[C@H](O)C(C)(C)COP(=O)(O)OP(=O)(O)OC[C@H]2O[C@@H](n3cnc4c(N)ncnc43)[C@H](O)[C@@H]2OP(=O)(O)O)ccc1O
As to conditions: acyl donor, amine acceptor 100 μM (which amine not told), 10 mM MgCl2, Tris-HCl pH 7.4, 30 °C.

Substrate in data set [4]: NCCCCN
The note with it: acyl acceptor, feruloyl-CoA 50 μM as donor, 10 mM MgCl2, Tris-HCl pH 7.4, 30 °C.

B1: HvACT (Hordeum vulgare) (protein)
chain: MKITVHSSKAVKPEYGACGLAPGCTADVVPLTVLDKANFDTYISVIYAFHAPAPPNAVLEAGLGRALVDYREWAGRLGVDASGGRAILLNDAGARFVEATADVALDSVMPLKPTSEVLSLHPSGDDGPEELMLIQVTRFACGSLVVGFTTQHIVSDGRSTGNFFVAWSQATRGAAIDPVPVHDRASFFHPREPLHVEYEHRGVEFKPCEKAHDVVCGADGDEDEVVVNKVHFSREFISKLKAHASAGAPRPCSTLQCVVAHLWRSMTMARGLDGGETTSVAIAVDGRARMSPQVPDGYTGNVILWARPTTTAGELVTRPVKHAVELISREVARINDGYFKSFIDFANSGAVEKERLVATADAADMVLSPNIEVDSWLRIPFYDMDFGGGRPFFFMPSYLPVEGLLILLPSFLGDGSVDAYVPLFSRDMNTFKNCCYSLD
As a reminder, the Km is the concentration of substrate that gives half-maximal velocity. The term kcat denotes the maximal rate divided by the concentration of active sites. One may read the kcat/Km as the turnover number divided by the Michaelis constant. Regarding B1, the Km turned out to be 483.5 ± 63.2 µM in “purified protein [1]”, 104.9 ± 26.3 µM in the data set “purified protein [2]”, 161.3 ± 36.5 µM in “purified protein [3]” and 7.11 ± 2.14 µM in “purified protein [4]”. Also, the kcat in the data set “purified protein [1]” amounted to 0.175 s⁻¹; in “purified protein [2]” it was 1.04 s⁻¹; in “purified protein [3]” it was 0.736 s⁻¹; in the data set “purified protein [4]”, 2.51 s⁻¹. Further, the kcat/Km was 10000 M⁻¹ s⁻¹ in “purified protein [2]”, 5000 M⁻¹ s⁻¹ in “purified protein [3]” and 353000 M⁻¹ s⁻¹ in “purified protein [4]”.
